Patent publication US20240092930A1 (MABWELL SHANGHAI BIOSCIENCE, published 2024)

T1: recombinant human Trop-2-his protein (ACCESSION NO.: NP_002344.2, AA 1-274) (human, UniProt P09758 27-274)
T1 construct: range 27-274; also called recombinant human Trop-2 protein; recombinant human Trop-2 extracellular domain; not shown: his tag
T1 sequence (looked up): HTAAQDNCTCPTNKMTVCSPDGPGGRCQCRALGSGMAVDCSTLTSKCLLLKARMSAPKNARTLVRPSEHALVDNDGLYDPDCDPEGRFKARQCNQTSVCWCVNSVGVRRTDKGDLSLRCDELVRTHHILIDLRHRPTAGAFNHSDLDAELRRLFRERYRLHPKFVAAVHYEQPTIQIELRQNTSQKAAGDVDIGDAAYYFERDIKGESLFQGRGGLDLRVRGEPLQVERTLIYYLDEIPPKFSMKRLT


The binders below were run against T1, recombinant human Trop-2-his protein … (assay: BLI, antibody on AHC sensor, Trop-2-his 60 nM).
Method: (§1) 5-6 days after cell transfection, culture supernatants were purified through ProA affinity chromatography column to obtain different humanized antibodies. Affinities of the obtained antibodies were determined by an assay including capturing Fc fragments of the antibodies with anti-human IgG Fc capture (AHC) biosensors using Octet QKe system instrument from Fortebio. For the assay, each of the humanized antibodies and control antibody Sacituzumab was diluted to 4 μg/ml in PBS, and was allowed to flow through the surface of an AHC biosensor (Cat.: 18-0015, PALL) for 120 s. Recombinant human Trop-2-his protein (ACCESSION NO.: NP_002344.2, AA 1-274) was used as a mobile phase, and its concentration was 60 nM. The binding time was 100 s and the dissociation time was 300 s. When the assay was finished, data from which the response values of blank control had been deducted were fitted to a 1:1 Langmuir binding model using software, and then kinetic constants for antigen-antibody binding were calculated.
Affinities of the antibodies obtained from the combinations of mutants of murine antibody 23-12, chimeric antibody ch23-12 and control antibody Sacituzumab to recombinant human Trop-2-his protein were determined by ForteBijo (Table 5).

Row | Kd [nM] | Binder
1 | 4.09 | h23-12-45 (antibody, human IgG1, kappa, V domains shown) VH: QVQLVQSGAEVKKPGASVKVSCKASGYTFTSYWMHWVRQAPGQGLEWMGEITPSDGYTSYNQKFKGRVTITRDTSTSTAYMELSSLRSEDTAVYYCARGHGNYVSFDYWGQGTLVTVSS VL: DIQMTQSPSSLSASVGDRVTITCRASQDISNYLNWYQQKPGKAPKLLIYYTSRLHSGVPSRFSGSGSGTDFTLTISSLQPEDFATYFCQQGYSLPPYTFGQGTKLEIKR
2 | 2.99 | h23-12-49 (antibody, human IgG1, kappa, V domains shown) VH: QVQLVQSGAEVKKPGASVKVSCKASGYTFTSYWMHWVRQAPGQGLEWMGEITPSDNYTSYNQKFKGRVTITRDTSTSTAYMELSSLRSEDTAVYYCARGQGNYVSFDYWGQGTLVTVSS VL: DIQMTQSPSSLSASVGDRVTITCRASQDISNYLNWYQQKPGKAPKLLIYYTSRLHSGVPSRFSGSGSGTDFTLTISSLQPEDFATYFCQQGYSLPPYTFGQGTKLEIKR
3 | 0.312 | h23-12-46 (antibody, human IgG1, kappa, V domains shown) VH: QVQLVQSGAEVKKPGASVKVSCKASGYTFTSYWMHWVRQAPGQGLEWMGEITPSDNYGSYNQKFKGRVTITRDTSTSTAYMELSSLRSEDTAVYYCARGHGNYVSFDYWGQGTLVTVSS VL: DIQMTQSPSSLSASVGDRVTITCRASQDISNYLNWYQQKPGKAPKLLIYYTSRLHSGVPSRFSGSGSGTDFTLTISSLQPEDFATYFCQQGYSLPPYTFGQGTKLEIKR
4 | 2.31 | h23-12-47 (antibody, human IgG1, kappa, V domains shown) VH: QVQLVQSGAEVKKPGASVKVSCKASGYTFTSYWMHWVRQAPGQGLEWMGEITPSDNYTSYAQKFKGRVTITRDTSTSTAYMELSSLRSEDTAVYYCARGHGNYVSFDYWGQGTLVTVSS VL: DIQMTQSPSSLSASVGDRVTITCRASQDISNYLNWYQQKPGKAPKLLIYYTSRLHSGVPSRFSGSGSGTDFTLTISSLQPEDFATYFCQQGYSLPPYTFGQGTKLEIKR
5 | 0.405 | h23-12-48 (antibody, human IgG1, kappa, V domains shown) VH: QVQLVQSGAEVKKPGASVKVSCKASGYTFTSYWMHWVRQAPGQGLEWMGEITPSDNYTSYNQKFKGRVTITRDTSTSTAYMELSSLRSEDTAVYYCARGEGNYVSFDYWGQGTLVTVSS VL: DIQMTQSPSSLSASVGDRVTITCRASQDISNYLNWYQQKPGKAPKLLIYYTSRLHSGVPSRFSGSGSGTDFTLTISSLQPEDFATYFCQQGYSLPPYTFGQGTKLEIKR

Target: T1, recombinant human Trop-2-his protein …
Assay: BLI, antibody on AHC sensor, Trop-2-his 60 nM
Remark: another data set of the same source
Method: as §1
Affinities of the antibodies obtained from the combinations of mutants of murine antibody 23-12, chimeric antibody ch4-3 and control antibody Sacituzumab to recombinant human Trop-2-his protein were determined by ForteBio (Table 8).

Row | Kd [nM] | Binder
6 | 0.411 | h4-3-2 (antibody, human IgG1, kappa, V domains shown) VH: EVQLVQSGPEVKKPGASVKVSCKASGFTFTDYVIGWVRQAPGQGLEWIGEIYLGSGTIYYAEKFKGRVTMTADTSTSTAYMELSSLRSEDTAVYYCARGSIFPFDYWGQGTLVTVSS VL: DIQLTQSPSSLSASVGDRVTITCSASSSVSYMYWYQQKPGKAPKLLIYDTSTLASGVPSRFSGSGSGTDFTLTISSLQPEDFATYYCQQWSSYPYTFGQGTKLEIKR
7 | 0.763 | h4-3-10 (antibody, human IgG1, kappa, V domains shown) VH: EVQLVQSGPEVKKPGASVKVSCKASGFTFTDYVIGWVRQAPGQGLEWIGEIYLGSGTIYYAEKFKGRVTMTADTSTSTAYMELSSLRSEDTAVYYCARGSIFPFDYWGQGTLVTVSS VL: DIQLTQSPSSLSASVGDRVTITCSASSSVSYMYWYQQKPGKAPKLLIYDASTLASGVPSRFSGSGSGTDFTLTISSLQPEDFATYYCQQWSSYPYTFGQGTKLEIKR
8 | 0.571 | h4-3-14 (antibody, human IgG1, kappa, V domains shown) VH: EVQLVQSGPEVKKPGASVKVSCKASGFTFTDYVIGWVRQAPGQGLEWIGEIYLGSGTIYYAEKFKGRVTMTADTSTSTAYMELSSLRSEDTAVYYCARGSIFPFDYWGQGTLVTVSS VL: DIQLTQSPSSLSASVGDRVTITCSASSSVSYMYWYQQKPGKAPKLLIYDTSTLQSGVPSRFSGSGSGTDFTLTISSLQPEDFATYYCQQWSSYPYTFGQGTKLEIKR
9 | 0.802 | h4-3-11 (antibody, human IgG1, kappa, V domains shown) VH: EVQLVQSGPEVKKPGASVKVSCKASGFTFTDYVIGWVRQAPGQGLEWIGEIYLGSGTIYYTQKFKGRVTMTADTSTSTAYMELSSLRSEDTAVYYCARGSIFPFDYWGQGTLVTVSS VL: DIQLTQSPSSLSASVGDRVTITCSASSSVSYMYWYQQKPGKAPKLLIYDASTLASGVPSRFSGSGSGTDFTLTISSLQPEDFATYYCQQWSSYPYTFGQGTKLEIKR
10 | 0.862 | h4-3-8 (antibody, human IgG1, kappa, V domains shown) VH: EVQLVQSGPEVKKPGASVKVSCKASGFTFTDYVIGWVRQAPGQGLEWIGEIYLGSGTIYYTEKFKGRVTMTADTSTSTAYMELSSLRSEDTAVYYCARGSIFYFDYWGQGTLVTVSS VL: DIQLTQSPSSLSASVGDRVTITCRASSSVSYMYWYQQKPGKAPKLLIYDTSTLASGVPSRFSGSGSGTDFTLTISSLQPEDFATYYCQQWSSYPYTFGQGTKLEIKR
11 | 0.466 | h4-3-7 (antibody, human IgG1, kappa, V domains shown) VH: EVQLVQSGPEVKKPGASVKVSCKASGFTFTDYVIGWVRQAPGQGLEWIGEIYLGSGTIYYTQKFKGRVTMTADTSTSTAYMELSSLRSEDTAVYYCARGSIFPFDYWGQGTLVTVSS VL: DIQLTQSPSSLSASVGDRVTITCRASSSVSYMYWYQQKPGKAPKLLIYDTSTLASGVPSRFSGSGSGTDFTLTISSLQPEDFATYYCQQWSSYPYTFGQGTKLEIKR
12 | 0.281 | h4-3-13 (antibody, human IgG1, kappa, V domains shown) VH: EVQLVQSGPEVKKPGASVKVSCKASGFTFTDYVIGWVRQAPGQGLEWIGEIYLGSGTIYYTEKFKGRVTMTADTSTSTAYMELSSLRSEDTAVYYCARGSIFPFDYWGQGTLVTVSS VL: DIQLTQSPSSLSASVGDRVTITCSASSSVSYMYWYQQKPGKAPKLLIYDTSTLQSGVPSRFSGSGSGTDFTLTISSLQPEDFATYYCQQWSSYPYTFGQGTKLEIKR
13 | 0.636 | h4-3-4 (antibody, human IgG1, kappa, V domains shown) VH: EVQLVQSGPEVKKPGASVKVSCKASGFTFTDYVIGWVRQAPGQGLEWIGEIYLGSGTIYYTEKFKGRVTMTADTSTSTAYMELSSLRSEDTAVYYCARGSIFYFDYWGQGTLVTVSS VL: DIQLTQSPSSLSASVGDRVTITCSASSSVSYMYWYQQKPGKAPKLLIYDTSTLASGVPSRFSGSGSGTDFTLTISSLQPEDFATYYCQQWSSYPYTFGQGTKLEIKR
14 | 0.501 | h4-3-3 (antibody, human IgG1, kappa, V domains shown) VH: EVQLVQSGPEVKKPGASVKVSCKASGFTFTDYVIGWVRQAPGQGLEWIGEIYLGSGTIYYTQKFKGRVTMTADTSTSTAYMELSSLRSEDTAVYYCARGSIFPFDYWGQGTLVTVSS VL: DIQLTQSPSSLSASVGDRVTITCSASSSVSYMYWYQQKPGKAPKLLIYDTSTLASGVPSRFSGSGSGTDFTLTISSLQPEDFATYYCQQWSSYPYTFGQGTKLEIKR
15 | 1.03 | h4-3-12 (antibody, human IgG1, kappa, V domains shown) VH: EVQLVQSGPEVKKPGASVKVSCKASGFTFTDYVIGWVRQAPGQGLEWIGEIYLGSGTIYYTEKFKGRVTMTADTSTSTAYMELSSLRSEDTAVYYCARGSIFYFDYWGQGTLVTVSS VL: DIQLTQSPSSLSASVGDRVTITCSASSSVSYMYWYQQKPGKAPKLLIYDASTLASGVPSRFSGSGSGTDFTLTISSLQPEDFATYYCQQWSSYPYTFGQGTKLEIKR
16 | 0.273 | h4-3-5 (antibody, human IgG1, kappa, V domains shown) VH: EVQLVQSGPEVKKPGASVKVSCKASGFTFTDYVIGWVRQAPGQGLEWIGEIYLGSGTIYYTEKFKGRVTMTADTSTSTAYMELSSLRSEDTAVYYCARGSIFPFDYWGQGTLVTVSS VL: DIQLTQSPSSLSASVGDRVTITCRASSSVSYMYWYQQKPGKAPKLLIYDTSTLASGVPSRFSGSGSGTDFTLTISSLQPEDFATYYCQQWSSYPYTFGQGTKLEIKR
17 | 0.317 | h4-3-9 (antibody, human IgG1, kappa, V domains shown) VH: EVQLVQSGPEVKKPGASVKVSCKASGFTFTDYVIGWVRQAPGQGLEWIGEIYLGSGTIYYTEKFKGRVTMTADTSTSTAYMELSSLRSEDTAVYYCARGSIFPFDYWGQGTLVTVSS VL: DIQLTQSPSSLSASVGDRVTITCSASSSVSYMYWYQQKPGKAPKLLIYDASTLASGVPSRFSGSGSGTDFTLTISSLQPEDFATYYCQQWSSYPYTFGQGTKLEIKR
18 | 0.397 | h4-3-6 (antibody, human IgG1, kappa, V domains shown) VH: EVQLVQSGPEVKKPGASVKVSCKASGFTFTDYVIGWVRQAPGQGLEWIGEIYLGSGTIYYAEKFKGRVTMTADTSTSTAYMELSSLRSEDTAVYYCARGSIFPFDYWGQGTLVTVSS VL: DIQLTQSPSSLSASVGDRVTITCRASSSVSYMYWYQQKPGKAPKLLIYDTSTLASGVPSRFSGSGSGTDFTLTISSLQPEDFATYYCQQWSSYPYTFGQGTKLEIKR
19 | 0.687 | h4-3-15 (antibody, human IgG1, kappa, V domains shown) VH: EVQLVQSGPEVKKPGASVKVSCKASGFTFTDYVIGWVRQAPGQGLEWIGEIYLGSGTIYYTQKFKGRVTMTADTSTSTAYMELSSLRSEDTAVYYCARGSIFPFDYWGQGTLVTVSS VL: DIQLTQSPSSLSASVGDRVTITCSASSSVSYMYWYQQKPGKAPKLLIYDTSTLQSGVPSRFSGSGSGTDFTLTISSLQPEDFATYYCQQWSSYPYTFGQGTKLEIKR
